# From the nanobody polyreactivity screen of Harvey et al. (2022)
# Assay: yeast display, Sf9 membrane polyspecificity reagent, FACS + sequencing; frameworks hold sequencing errors
# How it was run: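 Galactose induction of a Saccharomyces cerevisiae BJ5465 synthetic nanobody display library ran 36–48 hours. The cells were then stained for 1 hour at 4 °C with 10% biotinylated, detergent-solubilized Sf9 membrane reagent, pulled down on streptavidin microbeads and FACS-sorted into low and high (top ~1%) gates on expression and reagent-binding fluorescence. Labels for polyreactivity follow the gate of origin.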
row,Sequence,polyreactivity (PSR sort gate)
1,QVQLVESGGGLVQAGGSLRLSCAASGFIYRYNVMGWYRHAPGKEMEMVAAISTSGGRTYYADSVKGRFTISRDNAKNTVYLQMNSLKPEDSAVYYCNAVKSEVQKVGDGYYWGLGTQVTVSS,high polyreactivity
2,QVQLVESGGGLVQAGGSLRLSCAASGFIYTSYTMGWYRQAPGKERELVAAISYRGGRTYYADSVNGRFTISRDNAKNTVYLQMNSLKPEVTAVYYCAADRVNREFDYWGQGTQVTVSS,high polyreactivity
3,QVQLVESGGGLVQAGGSLRLSCAASGFIYVYNAMGWYRKAPGKEREFVAGISRSGGNTYYADSVKGRFTISRDNAKNTVYLQMNSLKPEDTAVYYCAVVNRRFGFPNVALRSNYGDYWGQGTQVTVSS,low polyreactivity
4,QVQLVESGGGLVQAGGSLRLSCAASGFIYYYNAMGWYSQAPGKERELVAAISSRGTSTYYADSVKGRFTISRENAKNTVYLQMNSLKPEDTAVYYCNALGNFGMDYWGQGNQVTVSS,high polyreactivity
5,QVQLVESGGGLVQAGGSLRLSCAASGFNFAIYAMGWYRQAPGKERELVAAINSDGSTYYADSLKGLFTISRDNAKNSDYLQINSLKPEDTAVYYCNAETAGHDMDYWGQGTQVTVSS,low polyreactivity
6,QVQLVESGGGLVQAGGSLRLSCAASGFNFERYAMGWYRQAPGKERELVAAISSRGGGTYYADSVKGRFTISRDNAKNTVYLQMNSLKPEDTAVYYCNRPYDYSYNYWGQGTQVTVSS,high polyreactivity
7,QVQLVESGGGLVQAGGSLRLSCAASGFNFLGNAMGWYRQAPGKERELVAAISSGGSTYADSVKGRFTISRDNAKNTVYLQMISLKPEDTAVYYCAVDRAFRAQNYHEYEYWGQGTQVTVSS,low polyreactivity
8,QVQLVESGGGLVQAGGSLRLSCAASGFNFPRYVMGWYRQAPGKERELVAAINSDISTNYADSVKGRFTISRDNANNSVYLQMTSLKPEDTAVFYCADERWDDPWEFDSWGQCTQVTVSS,low polyreactivity
9,QVQLVESGGGLVQAGGSLRLSCAASGFNFPYYAMGWYRQAPGKERELVAAISSSGGSTYYADSVKGRFTISRDNAKNTVYLHMNSLKPEDTAVYYCAADAYSGYSDYYWGQGTQVTVSS,low polyreactivity
10,QVQLVESGGGLVQAGGSLRLSCAASGFNFRFYAMGWYRQAPGKERELVAVITWSGGRTYYADSVKGRFTISRDNAKNTVYLQMNSLKPEDTAVYYCAAKRGKTYQRFDYWGQGTQVTVSS,high polyreactivity
11,QVQLVESGGGLVQAGGSLRLSCAASGFNFRVNAMGWYRQAPGKERELVAAITKSGGSTYYADSVKGRFTISRDNAKNTVYLQMNSLKPEDTAVYYCNVVWQYSTYVRYNYWGQGTQVTVSS,low polyreactivity
12,QVQLVESGGGLVQAGGSLRLSCAASGFNFSDYDMGWYRQAPGKERELVAAITYSGCSTYYADSVKGRFTISRDNAKKTVYLQMNSLKPEDTAVYYCAAVKSRYAEAVDYYYWGQGTQVTVSS,low polyreactivity
13,QVQLVESGGGLVQAGGSLRLSCAASGFNIGRNAMGWYRQAPGKERELVAGISISGGSTYYADSVKGRFTISRDNAKNTVYLQMNSLKPEDTAVYYCAAEYAYSLDPEEDYWGQGTQVTVSS,high polyreactivity
14,QVQLVESGGGLVQAGGSLRLSCAASGFNIIPYDMGWYRQAPGKEMDLVATISRGGSTNYADSVKGRFTISRDNAKNTVYLQMNSLKPEDTAVYYCAAEYKVVFSQPYGEYDYWGQGTQVTVSS,low polyreactivity
15,QVQLVESGGGLVQAGGSLRLSCAASGFNITYVMGWYRQAPGKERELVAVITNGGSTYYADSVKGRFTISRDNAMNTVYLLMNSLKPEDTAVYYCAARARFRYDSYYYWGQGTQLTVSS,high polyreactivity
16,QVQLVESGGGLVQAGGSLRLSCAASGFNIYYYTMGWYRQAPGKERELVAAISKSGGNTYYADSVKGRFTISRDNAKNTVYLQMNSLKPEDTAVYYCAASRYNTVTYYYWGQGTQVTVSS,high polyreactivity
17,QVQLVESGGGLVQAGGSLRLSCAASGFNYYTMGWYRQAPGKERELVAAINYSGGRTYYADSVKGRFTISRDNAKNTVYLQMNSLKPEDTAVYYCNTARSPYDHRPERSYDYWGQGTQVTVSS,high polyreactivity
18,QVQLVESGGGLVQAGGSLRLSCAASGFPFAKNAMGWYRQAPGKERELVAVITSSGGSTYYADSVKGRFTISRDNAKNTVYLQMNCLKPEDTAVYYCNVAYYYRSRSTGYEYWGQGTQVTVSS,high polyreactivity
19,QVQLVESGGGLVQAGGSLRLSCAASGFPFSRYARGWSRQAPGTERELVATITARGGTTYYADSVKGRFTISRDNAKNTVYLQMNSLKPEDTAVYYCNAKAYYRPYYDYDYGGQGTQVTVSS,high polyreactivity
20,QVQLVESGGGLVQAGGSLRLSCAASGFSFLQYVMGWYSQAPGKERELFAAITSGGSTYYADSVKGRFTISRDNAKNTVYLQMNSLKPDDTAVYYCATDVADNTFYALYGSDYWGQCTQVTVSS,low polyreactivity
21,QVQLVESGGGLVQAGGSLRLSCAASGFSFRYYTMGWYRPAPGKERELVARITWSGRITDYADSVKGRFTISRDNPKNTVYLQMNSLKPEDTAVSYCNAERRWAAYDYCGQGTQVTVSS,high polyreactivity

row,Sequence,polyreactivity (PSR sort gate)
1,QVQLVESGGGLVQAGGSLRLSCAASGFSFSRNAKGWYRQAPGKERELVAAISIRGGSTYYADSVKGRFTISRDNAKNTVYLQMNILKPEDTAVYYCNAYDLYRQRNGYGYWGQGTQVTVSS,high polyreactivity
2,QVQLVESGGGLVQAGGSLRLSCAASGFSFSRYAMGWYRQAPGKDRELVATITSGGGGTYYADSVKGRFTISRDNAKNTVYLQKNSLKPEDTAVYYCAKYSPYYRNGLDYWGHGTQVTVSS,high polyreactivity
3,QVQLVESGGGLVQAGGSLRLSCAASGFSFVYYAMGWYRQAPGKERELVATISGNGGRTYYADSVKGRFTISRDNAKNTVYLQMNSLKPEDTAVYYCAALLYIRSVGYDYWGQGTQVTVSS,low polyreactivity
4,QVQLVESGGGLVQAGGSLRLSCAASGFSFYYNTMGWYRQAPWTERELVAAITRSFGSTYYADSVKGSFTIARDHAQNTVYVQMNSLKPEDTAVYFCAARAYYFPKLPADYYWGQGTQVSVSS,high polyreactivity
5,QVQLVESGGGLVQAGGSLRLSCAASGFSSVRNDMGWYRQAPGKERELVAAISSGDTKDYADSVKGRFTISRDNAKNTVYLQMNSLNPEDTSVYYCAAVYYGRYYYWGQGTQVTVSS,low polyreactivity
6,QVQLVESGGGLVQAGGSLRLSCAASGFTCKYYTMGWYRQAPGKERELVAAISKSGDITYYADSVKGRFTISRDNAKNTVYLQMNSMKPEDTAVYYCAVVPSSTYHAYDYWGQGTQVTVSS,high polyreactivity
7,QVQLVESGGGLVQAGGSLRLSCAASGFTFAAYAMGWSRQAPGKERELVAAISRSGGSTYYADSVKGRFTISRDNAKNTVYLQMNSLKPEDTAVYYCAAYGWPKYNYWGQGTQVTVSS,high polyreactivity
8,QVQLVESGGGLVQAGGSLRLSCAASGFTFAAYAMGWYRQAPGKESELVAAITSRDGTTYYADSVKGRFTISRNNAKNTVYLQMNSLKPEDTAVYYCAKDHFTWGVSEDDYWRQGTQVTVSS,low polyreactivity
9,QVQLVESGGGLVQAGGSLRLSCAASGFTFAFYAMGWYRQAPGKERELVAAISWDGVTTYYADSVKGRFTISRDHAKNTVYLQMNSQKPEDTAVYYCAADYPDYAGSFWPSGMYYWGQGTQVTVSS,low polyreactivity
10,QVQLVESGGGLVQAGGSLRLSCAASGFTFAFYAMGWYRQAPGKERELVAAITGSGGSTYYADSVKGRFTISRDNAKNTVYLQMNSLKPEDTAVYYCAADKYLDYDYWGQGTQVTVSS,high polyreactivity
11,QVQLVESGGGLVQAGGSLRLSCAASGFTFAFYAMGWYRQAPGKERELVDAIRRTGSTNYADSVKGRFTISRDNAKNTVYLQMNSLKPEDNAVYYCAKTLWYDRGVGYWGQGTQVTVSS,high polyreactivity
12,QVQLVESGGGLVQAGGSLRLSCAASGFTFAFYDMGWYRQAPGKERELVAGISTSDGSTYYADSVKGRFTISRDNAKNTVYLQMNSLKPEDTAVYYCAASYYTYWWGYPVITFDYWGQGTQVTVSS,high polyreactivity
13,QVQLVESGGGLVQAGGSLRLSCAASGFTFAGNAMGWYRQAPGKERELVAAISRRGGSTYYADSVKGRFTISRDNAKNTVYLQMNSLKPEDTAVYYCAAVYPYDYDYWGQGTQVTVSS,high polyreactivity
14,QVQLVESGGGLVQAGGSLRLSCAASGFTFAGYAMGWYRQAPGKEMELVAAINYRGVRTYYADSVKGRFTISRDNSKNTVYLQMNSLIPEDTAVYYCAALPFLPGGGYVIHRFYYWGQGSQVTVSS,high polyreactivity
15,QVQLVESGGGLVQAGGSLRLSCAASGFTFAGYAMGWYRQAPGKERELVAAINRGGSTYYADSVKGRFTISRDNAKNTVYLQMNSLKPEDTAVYYCAKAQRFYGGRMGYWGQGTQVTVST,low polyreactivity
16,QVQLVESGGGLVQAGGSLRLSCAASGFTFAHNAMGWYRQAPGKERELVAAISSRGGRTFYADSVKGRFTISRDNAKNTVYLQMNSLKPEDTAVYYCNRVRSFQYDYWGQGTQVTVSS,high polyreactivity
17,QVQLVESGGGLVQAGGSLRLSCAASGFTFAKYAMGWYRQAPGKERELVAAITNSGCRTYYEDSVKGRFTISRDNAKNTVYLQMNSPKPEDTAVYYCATEQLGGSIYDYWGQGTQVTVSS,high polyreactivity
18,QVQLVESGGGLVQAGGSLRLSCAASGFTFALNAMGWYRQAPGKERELVAAISSRGGSTYYADSVKGRFTISRDNAKNTVYLQMNSLKPEDTAGYYCAKDYKADSRFSPYGYWGQGTQVTVSS,high polyreactivity
19,QVQLVESGGGLVQAGGSLRLSCAASGFTFALYAMGWYRQAPGKERELVAAITSGGSTNYADSVKGRFTISRDNAKNTVYLLMNSLKPEDTAVYYCAAVPYYRYYSLKGRNNYNYWGQGTQVTVSS,high polyreactivity
20,QVQLVESGGGLVQAGGSLRLSCAASGFTFANNAMGWYRQAPGKERELVAAITRGDSTYYAESVKGRFTISRDNAKNTVYLQMNSRKPEDTAVYYCAKEWYFPIYDYWGQGTQVTVSS,low polyreactivity
